Results reported in patent US11858972B2, “Micropeptides and uses thereof” (FUNDACIÓ PRIVADA INSTITUT D'INVESTIGACIÓ ONCOLÒGICA DE VALL …, priority 2018, dated 2024).

Tests used:
[1] = tested on: p21; experiment: p21 expression by qPCR in HCT116; type: cell-based, human; settings: HCT116 cells
Procedure: (§1) FIG. 24. Overexpression of the micropeptide of SEQ ID NO: 3 induces p21 upregulation and a pro-apoptotic program (A) qPCR analysis of p21 expression in HCT116 and A549 cancer cell lines upon SEQ ID NO: 3 overexpression. (B) Western blot analysis of p21 protein in A549 SEQ ID NO: 3-overexpressing cells. Cells treated with Nutlin-3 (10 μM) were used as positive control for p21 upregulation. (C) qPCR analysis of the indicated apoptosis-related genes in SEQ ID NO: 3-overexpressing HCT116 cells.
(§2) Total RNA was extracted with Trizol® and treated with TURBO™ DNase following provider's recommendations. 1 μg of RNA was retrotranscribed using iScript™ cDNA Synthesis Kit (BioRad). Gene expression was analysed by quantitative real time PCR using PowerUp SYBR Green Master Mix (Thermo Fisher Scientific) in the 7900HT Fast Real-Time PCR System (Applied Biosystems). Cycle threshold (Ct) values were normalized to GAPDH.

[2] = tested on: p21 protein; experiment: p21 protein by Western blot in A549; type: cell-based, human
Procedure: as §1
Cells pellets (4-5*10^6 cells) were homogenized in medium-salt lysis buffer (150 mM NaCl, 50 mM Tris pH 8, 1% NP40 and protein inhibitors cocktail). 50 μg of protein was loaded per lane in a 12% acrylamide gel and electrophoresed in Tris-Glycine SDS Running Buffer. The following antibodies were used: Anti-HA-Tag (Abcam, 1:5000), Anti-p53 (Santa Cruz, 1:1000), Anti-p21 (Thermo Fisher, 1:1000), Anti-GAPDH (Thermo Fisher, 1:5000).

[3] = tested on: BAX, BAK and BCL-2; experiment: Apoptosis-related gene expression by qPCR in HCT116; type: cell-based, human; settings: HCT116 colorectal cancer cell line
Procedure: as §1, §2

[4] = tested on: A549, human lung cancer; experiment: Cell death after retroviral overexpression (phase contrast images); type: cell-based
Source text: (§3) FIG. 23. Overexpression of the micropeptide of SEQ ID NO: 3 in cancer cell lines. (A) Analysis of SEQ ID NO: 3 overexpression by qPCR in A459 cells. (B) Detection of SEQ ID NO: 3 micropeptide expression in A459 cells by Western blot. (C) Phase contrast images of the indicated cell lines after SEQ ID NO: 3 overexpression.

[5] = tested on: HCT116, human colorectal cancer; experiment: as above; type: cell-based
Source text: as §3

[6] = tested on: p21; experiment: p21 expression by qPCR in A549; type: cell-based, human; settings: A459 cells
Procedure: as §1, §2

[7] = tested on: EMT regulators and adhesion factors in BxPC-3 pancreatic cancer cell line; experiment: EMT related gene expression by qPCR in BxPC-3; type: cell-based; settings: BxPC-3, vs empty vector
Source text: (§4) FIG. 15. Expression of the micropeptide of SEQ ID NO: 2 induces loss of mesenchymal identity in IMR90 (A), MIA PaCa-2 (B) and BxPC-3 (C) cell lines. mRNA levels of the indicated genes measured by qPCR. Values are relative to cells expressing the empty vector as a control. *P<0.05, **P<0.01, ***P<0.001 using Student's t-test for statistics. Error bars represent standard error of n=3 technical replicates.
as §2

[8] = tested on: SLUG, ZEB1, ZEB2, VIMENTIN, E-CADHERIN and CYTOKERATIN-5 in MDA-MB-231; experiment: Mesenchymal and epithelial gene expression by qPCR in MDA-MB-231; type: cell-based, human; settings: MDA-MB-231, vs empty vector
Procedure: (§5) FIG. 21. Overexpression of the micropeptide of SEQ ID NO: 2 induces loss of mesenchymal identity. mRNA levels of the indicated genes were measured by qPCR in MDA-MB-231 cell line. Values are relative to cells expressing the empty vector as a control. *P<0.05; **P<0.01; ***P<0.001 using Student's t-test for statistics. Error bars represent standard error of n=3 technical replicates.
as §2

[9] = tested on: EMT regulators and adhesion factors in human primary fibroblasts (IMR90); experiment: EMT related gene expression by qPCR in IMR90; type: cell-based; settings: vs empty vector
Source text: as §4, §2

[10] = tested on: MDA-MB-231 breast cancer cell line; experiment: Invasion assay (Boyden chamber, Matrigel); type: cell-based, human; settings: MDA-MB-231, 24 hours after seeding, vs empty vector
Procedure: (§6) FIG. 22. Expression of the micropeptide of SEQ ID NO: 2 reduces cell invasion of breast cancer cells. (A) Invasion of MDA-MB-231 breast cancer cells transduced with micropeptide of SEQ ID NO: 2 or empty vector across matrigel-covered inserts. Representative pictures of invading cells 24 hours after seeding. (B) Relative number of invading cells±SD (n=3 technical replicates), as relative to invading cells in the empty vector conditions. * p<0.05, using Student's t-test.
(§7) BxPC-3, MDA-MB-231, A549 and H10 cell lines were trypsinized, counted, and 20.000 cells/well were seeded in triplicate in a Corning® cell culture insert (Boyden chamber) in which the porous membrane is coated with a layer of Matrigel® to mimic an extra cellular matrix (ECM). Cells were allowed to invade through the coated membrane for 24 hours in the cell incubator at 37° C. After the incubation time, culture inserts were fixed in methanol 5 minutes at RT and stained using Crystal Violet 20 minutes at RT. The excess of Crystal Violet staining was removed washing with PBS and pictures of the chambers were taken using an Olympus CeIIR microscope. Invading cells were counted using ImageJ and fold change was calculated normalizing to the control.

[11] = tested on: PDAC pancreatic cancer cells co-cultured with CAFs; experiment: CAFs pro-invasive activity, co-culture with PDAC cells in Matrigel coated inserts; type: cell-based, mice; settings: micropeptide expressed in CAFs in bottom compartment, PDAC cells co-cultured 24 h
Procedure: FIG. 19. Expression of the micropeptide of SEQ ID NO: 2 reduces pro-tumoral activity of mCAFs cells. (A) Invasion of WT PDAC pancreatic cancer cells across matrigel-covered inserts where mCAFs expessing the micropeptide of SEQ ID NO: 2 or empty vector were seeded in the bottom compartment of the Boyden chambers. Representative pictures of invading cells 24 hours after seeding. (B) Relative number of invading cells.±SD (n=3 technical replicates), as relative to invading cells in the empty vector conditions.
BxPC-3 and A549 cell lines were cultured in RPMI supplemented with 10% of FBS and penicillin-streptomycin. Patient derived-H10 skin squamous cell carcinoma cell line was cultured in DMEM-F12 supplemented with B27 and penicillin-streptomycin. Cancer associated fibroblasts (CAFs) and PDAC cell lines were derived from LSL^−KrasG12D/+;LSL-Trp53R172H/+;Pdx-1-Cre mice and cultured in DMEM-F12 supplemented with 10% FBS and penicillin-streptomycin. All the other cell lines were cultured in DMEM supplemented with 10% of FBS and penicillin streptomycin. Cultures were routinely tested for mycoplasma and were always negative.
In order to test CAFs pro-invasive activity, 40.000 CAFs/well were seeded in 24-well plates. 48 h later, PDAC cells were trypsinized, counted, and 20.000 cells were seeded in the upper compartment of Matrigel® coated inserts that were placed over CAFs containing wells. […]

[12] = tested on: BxPC-3 cells; experiment: Wound healing assay; type: cell-based; settings: BxPC-3, vs empty vector
Procedure: (§8) FIG. 17. The micropeptide of SEQ ID NO: 2 impairs migration capability of pancreatic cancer cell lines. Wound healing assay was performed in MIA PaCa-2 (A) and BxPC-3 (B) cells infected with MIDORI or empty vector. Phase contrast images show the wound at the indicated time points after the scratch was performed.
(§9) MIA PaCa-2 and BxPC-3 cells were trypsinized, counted, and 400,000 cells/well were seeded in 6-well plates. Next day, a pipette tip was used to scratch the surface of cell monolayer, forming a wound. An Olympus CeIIR microscope equipped with a Hamamatsu C9100 camera was used to follow the closure of the wound.

[13] = tested on: MIA PaCa-2 cells; experiment: Wound healing assay; type: cell-based; settings: MIA PaCa-2, vs empty vector
Procedure: as §8, §9

[14] = tested on: EMT regulators and adhesion factors in MIA PaCa-2 pancreatic cancer cell line; experiment: EMT related gene expression by qPCR in MIA PaCa-2; type: cell-based; settings: MIA PaCa-2, vs empty vector
Source text: as §4, §2

[15] = tested on: EMT regulators, adhesion factors and METALLOPROTEINASE-2 in murine pancreatic cancer associated fibroblasts (mCAFs); experiment: EMT related gene expression by qPCR in mCAFs; type: cell-based; settings: vs empty vector
Procedure: as §5, with “16.” for “21.”, “mCAFs (A-B) cells.” for “MDA-MB-231 cell line.”
as §2

[16] = tested on: BxPC-3 cell line; experiment: Invasion assay (Boyden chamber, Matrigel); type: cell-based; settings: BxPC-3, 24 hours after seeding, vs empty vector
Procedure: as §6, with “18.” for “22.”, “impairs” for “reduces”, “in pancreatic” for “of breast”, “BxPC-3” for “MDA-MB-231 breast cancer”, “cells. Bars represent the average of two independent experiments±SD (n=2),” for “cells±SD (n=3 technical replicates),”
as §7

expression of EMT regulators SNAIL, SLUG, ZEB1, ZEB2, TWIST1 and VIMENTIN (if expressed) and adhesion factors COLLAGEN I, COLLAGEN IV, CD44 and FIBRONECTIN [15] | expression of METALLOPROTEINASE-2 [15] | Molecule | p21 expression (qPCR) [1] | p21 protein levels [2] | expression of the antiapoptotic gene BCL-2 [3] | expression of the pro-apoptotic genes BAX and BAK [3] | cell death [4] | cell death [5] | p21 expression (qPCR) [6] | expression of EMT regulators SNAIL, SLUG, ZEB1, ZEB2, TWIST1 and VIMENTIN (if expressed) and adhesion factors COLLAGEN I, COLLAGEN IV, CD44 and FIBRONECTIN [7] | expression of epithelial markers E-CADHERIN and CYTOKERATIN-5 [8] | expression of the EMT regulators SLUG, ZEB1, ZEB2 and VIMENTIN [8] | expression of EMT regulators SNAIL, SLUG, ZEB1, ZEB2, TWIST1 and VIMENTIN (if expressed) and adhesion factors COLLAGEN I, COLLAGEN IV, CD44 and FIBRONECTIN [9] | invasion capability [10] | pancreatic cancer cell invasion (non-cell autonomous) [11] | migration capability in wound healing assays [12] | migration capability in wound healing assays [13] | expression of EMT regulators SNAIL, SLUG, ZEB1, ZEB2, TWIST1 and VIMENTIN (if expressed) and adhesion factors COLLAGEN I, COLLAGEN IV, CD44 and FIBRONECTIN [14] | invasion [16]
– | – | SEQ ID NO: 3: 78-amino acid micropeptide encoded by the first exon of LINC0086 lncRNA (protein, listed as Homo sapiens) MAASAALSAAAAAAALSGLAVRLSRSAAARGSYGAFCKGLTRTLLTFFDLAWRLRMNFPYFYIVASVMLNVRLQVRIE | substantial p21 upregulation | increased p21 protein levels | downregulation | upregulation | massive cell death | massive cell death | substantial p21 upregulation | – | – | – | – | – | – | – | – | – | –
downregulation | downregulation | SEQ ID NO: 2: 64-amino acid micropeptide encoded by ZEB2 antisense 1 (ZEB2AS1) long non-coding RNA (protein, listed as Homo sapiens) MVRRKSMKKPRSVGEKKVEAKKQLPEQTVQKPRQECREAGPLFLQSRRETRDPETRATYLCGEG | – | – | – | – | – | – | – | downregulation | upregulation | downregulation | downregulation | decreased invasion capability | reduces pancreatic cancer cell invasion | decreased migration capability | decreased migration capability | downregulation | decreased invasion
